Measurements from IntAct's records for PubMed 15644435.

biological target: ush_drome ush (UniProt Q9VPQ6)
Sequence (Q9VPQ6 whole entry): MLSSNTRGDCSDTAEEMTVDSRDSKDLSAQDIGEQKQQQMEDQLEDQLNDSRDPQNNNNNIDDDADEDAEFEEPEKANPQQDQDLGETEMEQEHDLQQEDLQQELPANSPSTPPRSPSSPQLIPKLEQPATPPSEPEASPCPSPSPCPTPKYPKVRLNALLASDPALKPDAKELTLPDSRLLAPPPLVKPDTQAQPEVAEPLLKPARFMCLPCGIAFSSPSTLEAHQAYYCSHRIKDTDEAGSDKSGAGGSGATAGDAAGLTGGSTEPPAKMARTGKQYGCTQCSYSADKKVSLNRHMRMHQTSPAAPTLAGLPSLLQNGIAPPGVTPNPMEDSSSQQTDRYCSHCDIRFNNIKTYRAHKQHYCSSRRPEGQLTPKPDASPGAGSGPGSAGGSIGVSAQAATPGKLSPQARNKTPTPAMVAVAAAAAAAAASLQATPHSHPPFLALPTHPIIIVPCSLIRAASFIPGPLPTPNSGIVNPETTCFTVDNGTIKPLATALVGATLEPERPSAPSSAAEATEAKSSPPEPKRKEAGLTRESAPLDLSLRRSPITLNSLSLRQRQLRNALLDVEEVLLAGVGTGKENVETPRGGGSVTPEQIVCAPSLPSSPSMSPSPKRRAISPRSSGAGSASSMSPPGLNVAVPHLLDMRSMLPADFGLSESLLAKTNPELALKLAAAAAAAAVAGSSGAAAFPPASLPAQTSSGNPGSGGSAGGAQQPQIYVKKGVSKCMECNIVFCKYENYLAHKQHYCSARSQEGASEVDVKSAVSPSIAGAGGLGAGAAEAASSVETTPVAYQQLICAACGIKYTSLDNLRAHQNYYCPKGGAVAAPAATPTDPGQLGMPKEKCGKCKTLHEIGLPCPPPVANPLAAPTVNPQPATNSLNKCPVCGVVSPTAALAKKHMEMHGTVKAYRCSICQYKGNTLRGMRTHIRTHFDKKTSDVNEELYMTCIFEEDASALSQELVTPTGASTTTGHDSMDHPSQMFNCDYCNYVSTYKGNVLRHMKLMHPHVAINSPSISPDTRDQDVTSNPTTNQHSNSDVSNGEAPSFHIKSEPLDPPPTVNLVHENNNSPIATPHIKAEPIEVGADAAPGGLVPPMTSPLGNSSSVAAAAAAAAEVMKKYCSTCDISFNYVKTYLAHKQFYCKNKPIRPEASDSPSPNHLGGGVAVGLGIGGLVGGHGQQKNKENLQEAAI

Erythroid transcription factor (Mus musculus), P17679 D218G, sequence (P17679 whole entry D218G): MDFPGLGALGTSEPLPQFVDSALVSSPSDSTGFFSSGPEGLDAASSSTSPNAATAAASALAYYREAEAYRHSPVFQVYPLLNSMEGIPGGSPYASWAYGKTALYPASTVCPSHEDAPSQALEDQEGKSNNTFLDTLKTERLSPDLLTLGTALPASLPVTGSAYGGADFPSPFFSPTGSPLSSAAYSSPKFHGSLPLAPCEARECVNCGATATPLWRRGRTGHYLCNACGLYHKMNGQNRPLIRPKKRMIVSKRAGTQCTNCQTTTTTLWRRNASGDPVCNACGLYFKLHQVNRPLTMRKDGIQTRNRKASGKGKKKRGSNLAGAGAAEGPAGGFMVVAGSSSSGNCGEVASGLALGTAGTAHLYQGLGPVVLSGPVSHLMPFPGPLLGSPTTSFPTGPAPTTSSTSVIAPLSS
Erythroid transcription factor (Mus musculus), P17679 G208S, sequence (P17679 whole entry G208S): as the sequence (P17679 whole entry D218G) above, with G208S, G218D counted along it
Erythroid transcription factor (Mus musculus), P17679 R216Q, sequence (P17679 whole entry R216Q): as the sequence (P17679 whole entry D218G) above, with R216Q, G218D counted along it
Erythroid transcription factor (Mus musculus), P17679 V205M, sequence (P17679 whole entry V205M): as the sequence (P17679 whole entry D218G) above, with V205M, G218D counted along it

| effect of a mutation on the interaction | Substance |
| --- | --- |
| with no effect | Erythroid transcription factor (Mus musculus), P17679 D218G |
| disrupting interaction strength | Erythroid transcription factor (Mus musculus), P17679 G208S |
| with no effect | Erythroid transcription factor (Mus musculus), P17679 R216Q |
| disrupting interaction strength | Erythroid transcription factor (Mus musculus), P17679 V205M |
